Reference: US20220146515A1 (XIAMEN INNODX BIOTECH, published 2022)

Columns and labels:
[1] = molecular target: T1, AMH3647-21 (Sheep sequence) (Sheep); test: competition ELISA, antibody preincubated with target, AMH-coated plate
T1 sequence (peptide): TLIFQQGWDWPL

[2] = molecular target: T2, AMH truncated antigen 31-44 (human); test: as above
T2 sequence (peptide): AVGTSGLIFREDLD

[3] = molecular target: T3, AMH truncated antigen 39-45 (human); test: as above
T3 sequence (peptide): FREDLDW

[4] = molecular target: T4, AMH truncated antigen 38-44 (human); test: as above
T4 sequence (peptide): IFREDLD

[5] = molecular target: T5, AMH truncated antigen 37-43 (human); test: as above
T5 sequence (peptide): LIFREDL

[6] = molecular target: T6, AMH truncated antigen 41-55 (human); test: as above
T6 sequence (peptide): EDLDWPPGSPQEPLC

[7] = molecular target: T7, AMH truncated antigen 42-50 (human); test: as above
T7 sequence (peptide): DLDWPPGSP

[8] = molecular target: T8, AMH truncated antigen 38-45 (human); test: as above
T8 peptide: IFREDLDW
Description: (§1) 1. AMH antigen was diluted with carbonic acid buffer (20 mmol/L CB, pH 9.6) and then coated on a polyvinyl chloride plate. In the pretreatment, the antibody purified by the protein A column and the synthesized AMH truncated antigen sequences (see Table 3 for each synthetic sequence) were subjected to proportion incubation (100 ng/ml antibody: 50 ug/ml truncated antigen) for 30 minutes, that were test samples; the control sample was 100 ng/ml antibody: PBS, incubation for 30 minutes, and then the test samples after incubation and the control sample were added to AMH antigen plate and incubated for 30 minutes, the plate was washed for 5 times, added with GAM-HRP (1/5000 dilution) and incubated for 30 minutes, the plate was washed for 5 times, and the substrate was added and incubated for 15 minutes. The values under wavelength of 450/620 were read by microplate reader, and the detected OD values were finally calculated and analyzed. The calculation formula was: (control sample OD value−test sample OD value)/control sample OD value, and the criterion for determination was as follows: more than 90%, which indicated a good competitive effect, showing that the antibody should recognize the epitope.

[9] = molecular target: T9, AMH truncated antigen 43-51 (human); test: as above
T9 peptide: LDWPPGSPQ
Description: as §1

[10] = molecular target: T10, AMH truncated antigen 37-44 (human); test: as above
T10 construct: Printed with a blank (LIFR EDLD)
T10 peptide: LIFREDLD
Description: as §1

[11] = molecular target: T11, AMH truncated antigen 36-47 (human); test: as above
T11 construct: also called human AMH36-47; AMH3647-27 (Human)
T11 peptide: GLIFREDLDWPP
Description: as §1

[12] = molecular target: T12, AMH truncated antigen 42-47 (human); test: as above
T12 peptide: DLDWPP
Description: as §1

[13] = molecular target: T13, AMH truncated antigen 31-45 (human); test: as above
T13 peptide: AVGTSGLIFREDLDW
Description: as §1

[14] = molecular target: T14, AMH truncated antigen 41-46 (human); test: as above
T14 peptide: EDLDWP
Description: as §1

[15] = molecular target: T15, AMH truncated antigen 40-45 (human); test: as above
T15 peptide: REDLDW
Description: as §1

[16] = molecular target: T16, AMH truncated antigen 37-45 (human); test: as above
T16 peptide: LIFREDLDW
Description: as §1

[17] = molecular target: T17, AMH truncated antigen 41-45 (human); test: as above
T17 peptide: EDLDW
Description: as §1

[18] = molecular target: T18, AMH truncated antigen 42-49 (human); test: as above
T18 peptide: DLDWPPGS
Description: as §1

[19] = molecular target: T19, AMH truncated antigen 21-35 (human); test: as above
T19 peptide: GTEALRAEEPAVGTS
Description: as §1

[20] = molecular target: T20, AMH truncated antigen 42-48 (human); test: as above
T20 peptide: DLDWPPG
Description: as §1

[21] = molecular target: T21, AMH truncated antigen 34-45 (human); test: as above
T21 peptide: TSGLIFREDLDW
Description: as §1

[22] = molecular target: T22, AMH truncated antigen 35-45 (human); test: as above
T22 peptide: SGLIFREDLDW
Description: as §1

[23] = molecular target: T23, AMH truncated antigen 31-42 (human); test: as above
T23 peptide: AVGTSGLIFRED
Description: as §1

[24] = molecular target: T24, AMH3647-19 (Dog sequence) (Dog); test: competition ELISA, AMH-coated plate
T24 peptide: GLLFQPDWDWPP
Description: (§2) 1. AMH antigen was diluted with carbonic acid buffer (20 mmol/L CB, pH 9.6) and then coated on a polyvinyl chloride plate. In the pretreatment, the antibody purified by the protein A column and the synthesized short peptides with different human AMH36-47 amino acid mutations (see Table 6 for each synthesized sequence) were subjected to proportion incubation (100 ng/ml antibody: 50 ug/ml truncated antigen) for 30 minutes, that were test samples; the control sample was (100 ng/ml antibody: PBS) and incubated for 30 minutes, and then the test samples after incubation and the control sample were added to AMH antigen plate and incubated for 30 minutes, the plate was washed for 5 times, added with GAM-HRP (1/5000 dilution) and incubated for 30 minutes, the plate was washed for 5 times, and the substrate was added and incubated for 15 minutes. The values under wavelength of 450/620 were read by microplate reader, and the detected OD values were finally calculated and analyzed. The calculation formula was: (control sample OD value−test sample OD value)/control sample OD value, and the criterion for determination was as follows: 90% or more, which represented that there was cross-reaction.

[25] = molecular target: T25, AMH3647-22 (Mouse sequence) (Mouse); test: competition ELISA, AMH-coated plate
T25 peptide: GLIFLEDELWPP
Description: as §2

[26] = molecular target: T26, AMH3647-23 (Cattle sequence) (Cattle); test: competition ELISA, AMH-coated plate
T26 peptide: ALIFQQAWDWPL
Description: as §2

[27] = molecular target: T27, AMH3647-25 (Horse sequence) (Horse); test: competition ELISA, AMH-coated plate
T27 peptide: GLIFHQDWDWPP
Description: as §2

B1: monoclonal antibody C9F2-2 (antibody, V domains shown)
VH: EVQLVESGGGLVKPGGSLKLSCAASGFAFSTYDMSWVRQTPEKRLEWVAYISPGGGATYYPDTVKGRFTISRDNAKNTLYLQMTSLKSEDTAMYYCAGRRDYYGMDYWGQGTSVTVSS
VL: DVVMTQTPLSLPVSLGDQASISCRSSQSLVHSNGNTYLHWYLQKPGQSPKLLIYKVSNRFSGVPDRFSGSGSGTDFTLKISRVEAEDLGVYFCSQSTHVPWTFGGGTKLEIK
notes: Mouse hybridoma antibody purified from ascites; the tie is indirect; also called hybridoma CCTCC NO: C2018183
B1 was tested, and the percent inhibition [1] was 10%, the percent inhibition [2] was 38% and the percent inhibition [3] was 68%. The percent inhibition [4] was 33%, the percent inhibition [5] was 57% and the percent inhibition [6] was 68%. It also gave a percent inhibition [7] of 57%, a percent inhibition [8] of 92% and a percent inhibition [9] of -10%. It also gave a percent inhibition [10] of 24%, a percent inhibition [11] of 100% and a percent inhibition [12] of 6%. It also gave a percent inhibition [13] of 90%, a percent inhibition [14] of 15% and a percent inhibition [15] of -14%. The percent inhibition [16] was 91%, the percent inhibition [17] was 15% and the percent inhibition [18] was -8%. It also gave a percent inhibition [19] of 10%, a percent inhibition [20] of 2% and a percent inhibition [21] of 98%. The percent inhibition [22] was 97%, the percent inhibition [23] was 16% and the binding result [24] was “no binding (tested: 50 ug/ml peptide)”. B1: no binding (tested: 50 ug/ml peptide) [25]; no binding (tested: 50 ug/ml peptide) [26]; no binding (tested: 50 ug/ml peptide) [27].
